# According to the supplement of paper PMC9112550, “Optimization of the antimicrobial peptide Bac7 by deep mutational scanning” (BMC Biology, 2022):
# Test system: Escherichia coli TOP10
# Assay: shrunken log2 fold change of peptide-encoding DNA abundance (4.5 h post-induction vs induction); higher = less antimicrobial activity (less host growth inhibition)
# Settings: time post-induction: 4.5 h; library: site-saturation at positions 5, 18, 19, 20
# 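Note: peptides expressed intracellularly from a pBAD plasmid library in pooled LB shake-flask culture, induced with 0.3% L-arabinose, DNA abundance read by NGS, three biological replicates, DESeq2 with apeglm shrinkage.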
row,Sequence,shrunken log2 fold change
1,RRIRLRPPRLPRPRPRPVWVPRP,-0.0407
2,RRIRTRPPRLPRPRPRPNPNPRP,-0.306
3,RRIRERPPRLPRPRPRPGKDPRP,-0.24
4,RRIRTRPPRLPRPRPRPIVAPRP,2.95
5,RRIRDRPPRLPRPRPRPNVFPRP,-0.268
6,RRIRVRPPRLPRPRPRPIDLPRP,-0.417
7,RRIRCRPPRLPRPRPRPQCKPRP,-0.619
8,RRIRYRPPRLPRPRPRPLFCPRP,-0.579
9,RRIRCRPPRLPRPRPRPYNVPRP,-0.434
10,RRIRRRPPRLPRPRPRPRTYPRP,-0.213
11,RRIRKRPPRLPRPRPRPPHRPRP,0.501
12,RRIRLRPPRLPRPRPRPAVEPRP,-0.0223
13,RRIRSRPPRLPRPRPRPTSLPRP,0.074
14,RRIRMRPPRLPRPRPRPAINPRP,0.321
15,RRIRYRPPRLPRPRPRPYFAPRP,-0.796
16,RRIRIRPPRLPRPRPRPDNYPRP,-0.199
17,RRIRKRPPRLPRPRPRPCTFPRP,0.00111
18,RRIRNRPPRLPRPRPRPGKIPRP,-0.284
19,RRIRQRPPRLPRPRPRPIIQPRP,-0.248
20,RRIRIRPPRLPRPRPRPTLIPRP,-0.101
21,RRIRMRPPRLPRPRPRPFANPRP,-0.0062
22,RRIRPRPPRLPRPRPRPPFHPRP,0.011
23,RRIRPRPPRLPRPRPRPNSEPRP,-0.211
24,RRIRERPPRLPRPRPRPHGMPRP,0.0601
25,RRIRQRPPRLPRPRPRPLKVPRP,-0.102

row,Sequence,shrunken log2 fold change
1,RRIRSRPPRLPRPRPRPVACPRP,0.271
2,RRIRSRPPRLPRPRPRPIMEPRP,-0.182
3,RRIRGRPPRLPRPRPRPHNDPRP,0.0426
4,RRIRARPPRLPRPRPRPTNHPRP,-0.181
5,RRIRIRPPRLPRPRPRPHHNPRP,-0.0464
6,RRIRWRPPRLPRPRPRPHEMPRP,0.433
7,RRIRHRPPRLPRPRPRPPHYPRP,0.0175
8,RRIRMRPPRLPRPRPRPSMCPRP,0.0724
9,RRIRMRPPRLPRPRPRPFKAPRP,-0.114
10,RRIRDRPPRLPRPRPRPVCPPRP,-0.153
11,RRIRDRPPRLPRPRPRPTEHPRP,-0.109
12,RRIRNRPPRLPRPRPRPVNVPRP,-0.304
13,RRIRCRPPRLPRPRPRPNLYPRP,-0.347
14,RRIRARPPRLPRPRPRPNFAPRP,0.467
15,RRIRNRPPRLPRPRPRPMKNPRP,-0.238
16,RRIRMRPPRLPRPRPRPEHKPRP,2.5
17,RRIRYRPPRLPRPRPRPKQCPRP,-0.17
18,RRIRSRPPRLPRPRPRPEKEPRP,0.00748
19,RRIRNRPPRLPRPRPRPPIAPRP,-0.312
20,RRIRHRPPRLPRPRPRPDMGPRP,0.00739
21,RRIRFRPPRLPRPRPRPENPPRP,-0.0301
22,RRIRIRPPRLPRPRPRPRSYPRP,-0.381
23,RRIRLRPPRLPRPRPRPDRAPRP,0.0122
24,RRIRLRPPRLPRPRPRPNSSPRP,-0.11
25,RRIRNRPPRLPRPRPRPMNGPRP,0.015

row,Sequence,shrunken log2 fold change
1,RRIRYRPPRLPRPRPRPTFPPRP,-0.279
2,RRIRVRPPRLPRPRPRPYLIPRP,0.0388
3,RRIRERPPRLPRPRPRPYIIPRP,-0.837
4,RRIRARPPRLPRPRPRPLILPRP,-0.252
5,RRIRERPPRLPRPRPRPQFAPRP,-0.148
6,RRIRHRPPRLPRPRPRPRNNPRP,-0.493
7,RRIRKRPPRLPRPRPRPEESPRP,0.0563
8,RRIRDRPPRLPRPRPRPSQVPRP,-0.426
9,RRIRCRPPRLPRPRPRPYCPPRP,-0.968
10,RRIRERPPRLPRPRPRPSEYPRP,-0.27
11,RRIRRRPPRLPRPRPRPDRIPRP,0.14
12,RRIRGRPPRLPRPRPRPANMPRP,-0.139
13,RRIRLRPPRLPRPRPRPILRPRP,-0.156
14,RRIRSRPPRLPRPRPRPASYPRP,0.102
15,RRIRHRPPRLPRPRPRPMRIPRP,-0.00172
16,RRIRARPPRLPRPRPRPTQRPRP,0.915
17,RRIRRRPPRLPRPRPRPHDSPRP,-0.0547
18,RRIRHRPPRLPRPRPRPNPAPRP,-0.0505
19,RRIRKRPPRLPRPRPRPMFEPRP,0.312
20,RRIRMRPPRLPRPRPRPLESPRP,2.66
21,RRIRPRPPRLPRPRPRPAEFPRP,-0.0142
22,RRIRKRPPRLPRPRPRPLFNPRP,0.0323
23,RRIRWRPPRLPRPRPRPSDYPRP,0.0192
24,RRIRYRPPRLPRPRPRPNIHPRP,-0.98
25,RRIRYRPPRLPRPRPRPPHIPRP,-0.808

row,Sequence,shrunken log2 fold change
1,RRIRLRPPRLPRPRPRPKDRPRP,0.0663
2,RRIRARPPRLPRPRPRPNVTPRP,0.17
3,RRIRSRPPRLPRPRPRPTGMPRP,0.0395
4,RRIRNRPPRLPRPRPRPYNYPRP,-0.067
5,RRIRPRPPRLPRPRPRPCAGPRP,0.122
6,RRIRTRPPRLPRPRPRPGSIPRP,-0.025
7,RRIRDRPPRLPRPRPRPTDWPRP,0.516
8,RRIRSRPPRLPRPRPRPASTPRP,-0.16
9,RRIRYRPPRLPRPRPRPHKSPRP,-0.526
10,RRIRNRPPRLPRPRPRPTVPPRP,-0.233
11,RRIRNRPPRLPRPRPRPDYQPRP,-0.165
12,RRIRLRPPRLPRPRPRPIQNPRP,-0.403
13,RRIRCRPPRLPRPRPRPMQGPRP,-0.0484
14,RRIRDRPPRLPRPRPRPKAFPRP,-0.00149
15,RRIRNRPPRLPRPRPRPCLCPRP,-0.275
16,RRIRDRPPRLPRPRPRPPPFPRP,0.321
17,RRIRERPPRLPRPRPRPQSIPRP,-2.26
18,RRIRQRPPRLPRPRPRPCRLPRP,-0.15
19,RRIRGRPPRLPRPRPRPYQRPRP,0.189
20,RRIRIRPPRLPRPRPRPDHCPRP,-0.0229
21,RRIRRRPPRLPRPRPRPLLLPRP,0.0522
22,RRIRLRPPRLPRPRPRPIPIPRP,-0.456
23,RRIRWRPPRLPRPRPRPRKHPRP,0.15
24,RRIRCRPPRLPRPRPRPNQKPRP,0.184
25,RRIRFRPPRLPRPRPRPWWTPRP,0.0245

row,Sequence,shrunken log2 fold change
1,RRIRARPPRLPRPRPRPSCWPRP,0.628
2,RRIRTRPPRLPRPRPRPHTAPRP,-0.0446
3,RRIRSRPPRLPRPRPRPAIKPRP,-0.352
4,RRIRIRPPRLPRPRPRPYKDPRP,-0.317
5,RRIRARPPRLPRPRPRPDPRPRP,0.254
6,RRIRPRPPRLPRPRPRPNKRPRP,-0.101
7,RRIRWRPPRLPRPRPRPHCIPRP,-0.207
8,RRIRERPPRLPRPRPRPWFVPRP,-0.463
9,RRIRFRPPRLPRPRPRPSENPRP,-0.458
10,RRIRWRPPRLPRPRPRPKGWPRP,0.845
11,RRIRSRPPRLPRPRPRPILGPRP,-0.016
12,RRIRRRPPRLPRPRPRPEFDPRP,0.486
13,RRIRHRPPRLPRPRPRPRGMPRP,0.207
14,RRIRKRPPRLPRPRPRPLPKPRP,0.54
15,RRIRGRPPRLPRPRPRPILHPRP,0.0775
16,RRIRERPPRLPRPRPRPYRMPRP,-0.113
17,RRIRTRPPRLPRPRPRPLMAPRP,-0.031
18,RRIRIRPPRLPRPRPRPHWFPRP,0.022
19,RRIRVRPPRLPRPRPRPPHSPRP,0.108
20,RRIRMRPPRLPRPRPRPNRAPRP,0.239
21,RRIRARPPRLPRPRPRPRKQPRP,0.301
22,RRIRNRPPRLPRPRPRPIYMPRP,-0.473
23,RRIRERPPRLPRPRPRPRKFPRP,0.173
24,RRIRLRPPRLPRPRPRPSPAPRP,0.254
25,RRIRFRPPRLPRPRPRPPHYPRP,-0.124

row,Sequence,shrunken log2 fold change
1,RRIRARPPRLPRPRPRPRLDPRP,0.291
2,RRIRGRPPRLPRPRPRPCYLPRP,-0.177
3,RRIRFRPPRLPRPRPRPGKTPRP,-0.142
4,RRIRKRPPRLPRPRPRPDHLPRP,-0.0896
5,RRIRHRPPRLPRPRPRPNSGPRP,-0.194
6,RRIRTRPPRLPRPRPRPKVYPRP,0.0324
7,RRIRSRPPRLPRPRPRPGNNPRP,-0.354
8,RRIRMRPPRLPRPRPRPYNFPRP,-0.363
9,RRIRLRPPRLPRPRPRPIHPPRP,-0.168
10,RRIRDRPPRLPRPRPRPINWPRP,-0.044
11,RRIRKRPPRLPRPRPRPSITPRP,0.846
12,RRIRMRPPRLPRPRPRPYGRPRP,0.0596
13,RRIRDRPPRLPRPRPRPPAHPRP,0.56
14,RRIRGRPPRLPRPRPRPLGAPRP,1.07
15,RRIRQRPPRLPRPRPRPVDWPRP,0.39
16,RRIRGRPPRLPRPRPRPCVHPRP,0.107
17,RRIRCRPPRLPRPRPRPWCWPRP,0.0184
18,RRIRPRPPRLPRPRPRPPWSPRP,0.00901
19,RRIRERPPRLPRPRPRPKESPRP,0.0252
20,RRIRIRPPRLPRPRPRPVWYPRP,-0.84
21,RRIRVRPPRLPRPRPRPWHKPRP,-0.127
22,RRIRYRPPRLPRPRPRPAHTPRP,-0.113
23,RRIRCRPPRLPRPRPRPLYDPRP,-0.312
24,RRIRDRPPRLPRPRPRPSDNPRP,-0.0807
25,RRIRVRPPRLPRPRPRPILCPRP,0.0143
